One substance from article PMC8523169 can be followed below.

The assay has as its target full-length MukB (wild type) (E. coli) (UniProt P22523). As to the kind of experiment: fluorescence correlation spectroscopy (FCS); competition: MatP-Cy3B fixed at 1 nM, MukB at 400 nM; ParC variants at 10-fold, unlabeled MatP at 50-fold, DNA at 2.5-fold molar excess.

Sequence of MBP-ParC^CTD (ParC C-terminal domain with N-terminal MBP fusion) (domain or fragment) (P0AFI2 whole entry, the tested form may be a part): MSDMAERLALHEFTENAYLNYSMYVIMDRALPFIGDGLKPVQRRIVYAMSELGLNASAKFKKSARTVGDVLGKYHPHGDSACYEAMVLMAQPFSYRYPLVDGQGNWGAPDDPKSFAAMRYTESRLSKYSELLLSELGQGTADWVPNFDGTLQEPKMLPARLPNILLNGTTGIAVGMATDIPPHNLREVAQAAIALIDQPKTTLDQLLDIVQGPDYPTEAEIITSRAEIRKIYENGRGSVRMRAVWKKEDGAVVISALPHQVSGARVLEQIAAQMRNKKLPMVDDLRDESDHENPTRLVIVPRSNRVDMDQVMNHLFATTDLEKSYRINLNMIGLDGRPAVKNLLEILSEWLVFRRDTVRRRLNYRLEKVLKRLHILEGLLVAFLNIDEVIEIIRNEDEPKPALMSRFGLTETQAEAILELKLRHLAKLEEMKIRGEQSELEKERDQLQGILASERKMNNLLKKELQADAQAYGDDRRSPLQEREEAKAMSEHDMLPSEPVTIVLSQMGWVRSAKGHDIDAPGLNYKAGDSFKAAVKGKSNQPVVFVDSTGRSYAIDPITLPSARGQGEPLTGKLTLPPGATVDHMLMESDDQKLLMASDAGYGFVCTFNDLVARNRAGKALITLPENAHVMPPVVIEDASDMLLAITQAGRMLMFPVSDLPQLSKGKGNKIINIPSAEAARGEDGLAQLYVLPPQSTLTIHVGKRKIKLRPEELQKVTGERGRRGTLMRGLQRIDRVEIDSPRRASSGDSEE
Sequence of full-length MukB (wild type) (E. coli) (P22523 whole entry): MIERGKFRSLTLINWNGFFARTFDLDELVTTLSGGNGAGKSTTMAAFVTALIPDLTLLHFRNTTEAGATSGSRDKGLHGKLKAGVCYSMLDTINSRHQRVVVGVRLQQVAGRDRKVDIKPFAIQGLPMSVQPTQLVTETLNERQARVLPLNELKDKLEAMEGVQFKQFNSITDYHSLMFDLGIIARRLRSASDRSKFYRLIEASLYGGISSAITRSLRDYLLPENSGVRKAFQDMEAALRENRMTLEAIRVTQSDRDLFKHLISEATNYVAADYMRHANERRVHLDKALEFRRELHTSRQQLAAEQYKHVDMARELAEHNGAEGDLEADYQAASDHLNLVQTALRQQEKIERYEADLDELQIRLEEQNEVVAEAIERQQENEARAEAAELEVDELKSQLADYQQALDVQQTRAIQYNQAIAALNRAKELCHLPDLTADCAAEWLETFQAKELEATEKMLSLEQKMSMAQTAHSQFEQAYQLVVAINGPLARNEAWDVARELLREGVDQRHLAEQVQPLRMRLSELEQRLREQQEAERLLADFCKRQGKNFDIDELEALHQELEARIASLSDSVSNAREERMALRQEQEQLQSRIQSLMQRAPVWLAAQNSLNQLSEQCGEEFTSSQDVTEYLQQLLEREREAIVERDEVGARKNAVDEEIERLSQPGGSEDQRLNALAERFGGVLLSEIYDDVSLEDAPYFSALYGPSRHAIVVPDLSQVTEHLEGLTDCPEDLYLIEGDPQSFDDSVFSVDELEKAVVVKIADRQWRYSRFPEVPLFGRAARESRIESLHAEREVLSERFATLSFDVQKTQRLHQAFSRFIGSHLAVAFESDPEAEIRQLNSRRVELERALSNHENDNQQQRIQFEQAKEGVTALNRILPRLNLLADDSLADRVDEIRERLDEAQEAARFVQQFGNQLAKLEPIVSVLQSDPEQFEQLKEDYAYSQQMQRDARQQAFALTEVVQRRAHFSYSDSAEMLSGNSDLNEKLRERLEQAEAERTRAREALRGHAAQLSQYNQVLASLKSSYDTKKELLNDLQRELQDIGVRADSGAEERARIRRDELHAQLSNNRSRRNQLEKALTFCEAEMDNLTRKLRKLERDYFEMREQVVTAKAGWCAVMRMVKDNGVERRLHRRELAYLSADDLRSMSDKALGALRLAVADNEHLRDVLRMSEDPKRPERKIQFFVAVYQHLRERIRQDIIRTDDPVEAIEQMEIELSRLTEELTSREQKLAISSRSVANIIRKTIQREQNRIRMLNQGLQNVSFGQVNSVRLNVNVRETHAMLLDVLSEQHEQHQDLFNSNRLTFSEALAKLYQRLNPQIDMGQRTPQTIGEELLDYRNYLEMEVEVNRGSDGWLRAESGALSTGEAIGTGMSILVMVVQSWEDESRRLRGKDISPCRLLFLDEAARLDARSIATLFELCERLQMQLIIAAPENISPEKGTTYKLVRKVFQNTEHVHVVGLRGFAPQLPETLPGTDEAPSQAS

For the substance “MBP-ParC^CTD (ParC C-terminal domain with N-terminal MBP fusion) (domain or fragment)”, the fold decrease in MatP-Cy3B binding to MukB at 10-fold excess of competitor turned out to be 3 fold.
